Holding throughout (test): cell-based or functional assay
Experiment [1] concerns the target HIV-1 Env of isolate APV_17, clade B (HIV-1).
Experiment [2] has as its target HIV-1 Env of isolate MGRM-A-008 (clade A pseudovirus) (HIV-1).
In experiment [3] the target is HIV-1 envelope glycoprotein (Env) of isolate MGRM-C-012 (HIV-1).
The target of experiment [4] is HIV-1 Env of isolate 92UG005 (clade D pseudovirus) (HIV-1).
The target in experiment [5] is HIV-1 Env of isolate MGRM-A-004 (clade A pseudovirus) (HIV-1).
For experiment [6], the target named is HIV-1 MGRM-AE-001 Env (pseudovirus) (HIV-1).
The target of experiment [7] is HIV-1 MGRM-AG-005 Env (pseudovirus) (HIV-1).
For experiment [8], the target named is HIV-1 Env of isolate MGRM-A-002 (clade A pseudovirus) (HIV-1).
Experiment [9] addresses HIV-1 Env of pseudovirus MGRM-G-025 (HIV-1).
Experiment [10] has as its target HIV-1 CMU02 Env (pseudovirus) (HIV-1).
Experiment [11] concerns the target HIV-1 Env of isolate 94UG103 (clade A pseudovirus) (HIV-1).
Experiment [12] deals with HIV-1 Env of isolate MGRM-D-008 (clade D pseudovirus) (HIV-1).
Experiment [13] has as its target HIV-1 Env of isolate MGRM-D-021 (clade D pseudovirus) (HIV-1).
The target in experiment [14] is HIV-1 92TH021 Env (pseudovirus) (HIV-1).
The target of experiment [15] is HIV-1 Env of isolate MGRM-D-014 (clade D pseudovirus) (HIV-1).
The target of experiment [16] is HIV-1 MGRM-AE-003 Env (pseudovirus) (HIV-1).
Experiment [17] addresses HIV-1 IAVI-C22 envelope (Env) on pseudovirus (HIV-1).
Experiment [18] deals with HIV-1 Env of isolate MG RM-A-011 (pseudovirus) (HIV-1).
Experiment [19] deals with HIV-1 Env of pseudovirus isolate MGRM-Chronic-B-008 (clade B) (HIV-1).
Experiment [20] concerns the target HIV-1 Env of isolate VLGCA1 (pseudovirus) (HIV-1).
For experiment [21], the target named is HIV-1 Env of isolate MGRM-C-020 (subtype C), on pseudovirus (HIV-1).
The target of experiment [22] is HIV-1 Env of isolate MG RM-A-012 (pseudovirus) (HIV-1).
Experiment [23] addresses HIV-1 envelope glycoprotein (Env) of isolate MGRM-AE-001, subtype AE (HIV-1).
Experiment [24] has as its target HIV-1 envelope glycoprotein (Env) of isolate 93WR029, subtype A (HIV-1).
For experiment [25], the target named is HIV-1 MGRM-C-028 Env (HIV-1).
In experiment [26] the target is HIV-1 JR-CSF Env N396A (HIV-1 (isolate JR-CSF)) (UniProt P20871).

Sequence of 4995_P16 (PGT-145) (antibody) (VH): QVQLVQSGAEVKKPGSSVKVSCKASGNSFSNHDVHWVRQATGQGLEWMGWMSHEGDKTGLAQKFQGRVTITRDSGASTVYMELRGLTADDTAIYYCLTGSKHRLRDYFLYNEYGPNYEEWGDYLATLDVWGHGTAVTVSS
Sequence of 4995_P16 (PGT-145) (antibody) (VL): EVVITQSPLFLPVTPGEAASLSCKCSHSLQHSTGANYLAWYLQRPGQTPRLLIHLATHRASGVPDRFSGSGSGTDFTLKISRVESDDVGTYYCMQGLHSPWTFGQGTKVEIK
Sequence of 1443_C16 (PG16) (TCN-116) (antibody) (VH): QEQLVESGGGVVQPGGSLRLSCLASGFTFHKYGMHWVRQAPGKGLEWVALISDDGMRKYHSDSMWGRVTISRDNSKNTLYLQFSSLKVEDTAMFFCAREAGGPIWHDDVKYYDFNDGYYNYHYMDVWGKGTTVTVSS
Sequence of 1443_C16 (PG16) (TCN-116) (antibody) (VL): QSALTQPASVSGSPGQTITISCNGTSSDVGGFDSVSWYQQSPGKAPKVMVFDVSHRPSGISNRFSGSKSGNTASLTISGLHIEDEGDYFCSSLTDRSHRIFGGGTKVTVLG

Take 4E10 (antibody): the IC50 (µg/ml), pseudovirus neutralization was found to be 10.5 µg/mL in [1]; 7.59 µg/mL in experiment [2]; 0.44 µg/mL in experiment [3]; 3.14 µg/mL in experiment [5]; 0.85 µg/mL in experiment [6]; 2.13 µg/mL in [7]. The IC50 (µg/ml), pseudovirus neutralization in [8] was 6.45 µg/mL; in experiment [9] it was 1.7 µg/mL; in experiment [10], 0.72 µg/mL; in [11], 4.97 µg/mL; in experiment [14], 1.17 µg/mL; in experiment [16], 0.34 µg/mL. The IC50, pseudovirus neutralization is 7.46 µg/mL in [4], 42.9 µg/mL in experiment [12], 13.3 µg/mL in experiment [13] and 3.24 µg/mL in experiment [15]. In [17], this substance came in with a neutralization IC50 of 1.02 µg/mL.

With 4995_P16 (PGT-145) (antibody), the IC50 (µg/mL), single-round pseudovirus neutralization in experiment [18] was found to be 0.484 µg/mL; in experiment [20], 8.01 µg/mL; in experiment [22] it was 0.23 µg/mL. Besides, the IC50, pseudovirus neutralization in [19] came out at 1.9 µg/mL. In addition, the IC50, single-round pseudovirus neutralization in experiment [21] was 0.712 µg/mL.

As for 4877_D15 (PGT-122) (antibody), the IC50, pseudovirus neutralization in experiment [23] was above 50 µg/mL; in experiment [24], above 50 µg/mL; in experiment [25], 2.06 µg/mL.

For the substance 4858_P08 (PGT-123) (antibody), the IC50, pseudovirus neutralization in [23] is above 50 µg/mL; in [24] it was above 50 µg/mL; in [25], 0.443 µg/mL. The Fold IC50 increase relative to wild-type (pseudovirus neutralization) in experiment [26] was 1.2 fold.

For 1496_C09 (PG9) (TCN-109) (antibody), the IC50 (µg/ml), pseudovirus neutralization is 14.6 µg/mL in [1]; 0.24 µg/mL in experiment [3]; 2.97 µg/mL in experiment [6]; 29.7 µg/mL in experiment [7]; 7.69 µg/mL in experiment [10]; 0.24 µg/mL in [11]. Further, the IC50 (µg/ml), pseudovirus neutralization in [14] is 0.09 µg/mL. In experiment [20], this substance showed an IC50 (µg/mL), pseudovirus neutralization of 0.069 µg/mL. For the same substance, the IC50, pseudovirus neutralization came to 0.121 µg/mL in experiment [25] and 6.86 µg/mL in experiment [12]. The substance also yielded a neutralization IC50 in experiment [17] of 24.9 µg/mL.

As for b12 (antibody), the IC50 (µg/ml), pseudovirus neutralization was above 50 µg/mL in [1]; above 50 µg/mL in experiment [2]; above 50 µg/mL in [3]; above 50 µg/mL in experiment [5]; 25.9 µg/mL in experiment [6]; above 50 µg/mL in experiment [7]. Besides, the IC50 (µg/ml), pseudovirus neutralization was above 50 µg/mL in experiment [8]; above 50 µg/mL in experiment [9]; 29.3 µg/mL in [10]; 6.92 µg/mL in experiment [11]; above 50 µg/mL in experiment [16]. In addition, the IC50, pseudovirus neutralization was above 50 µg/mL in experiment [4], above 50 µg/mL in [12], 5.23 µg/mL in experiment [13] and above 50 µg/mL in experiment [15]. In experiment [17], this substance displayed a neutralization IC50 of 3.6 µg/mL.

In the case of 5145_B14 (PGT-127) (antibody), the IC50, pseudovirus neutralization in experiment [23] and in experiment [24] was above 50 µg/mL throughout. Moreover, the Fold IC50 increase relative to wild-type (pseudovirus neutralization) in [26] is 2.4 fold.

For 1443_C16 (PG16) (TCN-116) (antibody), the IC50 (µg/ml), pseudovirus neutralization in experiment [1] was 24.8 µg/mL; in experiment [2], above 50 µg/mL; in [3], 0.48 µg/mL; in [5], 0.04 µg/mL; in [6], 4.33 µg/mL; in experiment [7], above 50 µg/mL. Moreover, the IC50 (µg/ml), pseudovirus neutralization in experiment [8] was 0.004 µg/mL; in [9], above 50 µg/mL; in [10], 43.6 µg/mL; in experiment [11], 0.04 µg/mL; in experiment [14], 0.1 µg/mL; in experiment [16], 0.03 µg/mL. Also, the IC50, pseudovirus neutralization in [4] was above 50 µg/mL; in experiment [12] it was above 50 µg/mL; in experiment [13] it was above 50 µg/mL; in [15], 0.003 µg/mL. Further, the neutralization IC50 in experiment [17] was determined as 0.0687 µg/mL.

With 5141_B17 (PGT-126) (antibody), the figures for the IC50, pseudovirus neutralization in experiment [23], in [24] and in experiment [25] were 9.68 µg/mL, above 50 µg/mL and 0.283 µg/mL, respectively. In [26], the Fold IC50 increase relative to wild-type (pseudovirus neutralization) stood at 1.7 fold.

PGV04 (antibody): the IC50 (µg/mL), pseudovirus neutralization in experiment [20] turned out to be 0.024 µg/mL.

In the case of 5123_A06 (PGT-125) (antibody), the IC50, pseudovirus neutralization is 2.95 µg/mL in experiment [23], above 50 µg/mL in experiment [24] and 5.78 µg/mL in [25]. The Fold IC50 increase relative to wild-type (pseudovirus neutralization) in [26] came to 1.6 fold. Moreover, the Neutralization by PGT-125, IC50 in experiment [7] was above 10 µg/mL; in experiment [10], above 10 µg/mL; in [14], 0.0066 µg/mL. Besides, the Neutralization by PGT-125, IC80 in experiment [7] was above 10 µg/mL; in experiment [10], above 10 µg/mL; in [14] it was 0.0292 µg/mL. The Neutralization by PGT-125, IC90 is above 10 µg/mL in [7], above 10 µg/mL in experiment [10] and 0.0701 µg/mL in experiment [14]. The values for the Neutralization by PGT-125, IC95 in experiment [7], in experiment [10] and in experiment [14] were above 10 µg/mL, above 10 µg/mL and 0.157 µg/mL, respectively.

Consider 1495_C14 (PGC14) (antibody), for which the IC50 (µg/ml), pseudovirus neutralization in [1], in experiment [2], in [3], in experiment [5], in [6] and in [7] was above 50 µg/mL in each case. In addition, the IC50 (µg/ml), pseudovirus neutralization in experiment [8], in [9], in [10], in [11], in [14] and in experiment [16] was above 50 µg/mL throughout. Also, the IC50, pseudovirus neutralization is above 50 µg/mL in experiment [4], above 50 µg/mL in experiment [12], above 50 µg/mL in experiment [13] and 48 µg/mL in experiment [15]. The substance also had a neutralization IC50 in experiment [17] of 9.5 µg/mL.

As to 2G12 (antibody), the IC50 (µg/ml), pseudovirus neutralization in [1], in experiment [2], in experiment [3], in experiment [5], in [6] and in experiment [7] was above 50 µg/mL each time. In addition, the IC50 (µg/ml), pseudovirus neutralization is above 50 µg/mL in [8]; 31.9 µg/mL in experiment [9]; above 50 µg/mL in experiment [10]; 48.1 µg/mL in experiment [11]; above 50 µg/mL in [14]; above 50 µg/mL in experiment [16]. Also, the IC50, pseudovirus neutralization was above 50 µg/mL in experiment [4], above 50 µg/mL in [12], 23 µg/mL in experiment [13] and above 50 µg/mL in [15]. For the same substance, the neutralization IC50 in experiment [17] was above 50 µg/mL.

With 4838_L06 (PGT-121) (antibody), the IC50, pseudovirus neutralization in experiment [23] and in experiment [24] was above 50 µg/mL throughout.

On to 2F5 (antibody), for which the IC50 (µg/ml), pseudovirus neutralization in [1] is 4.61 µg/mL; in experiment [2], above 50 µg/mL; in experiment [3] it was above 50 µg/mL; in experiment [5], 7.49 µg/mL; in experiment [6] it was 0.29 µg/mL; in [7], above 50 µg/mL. Further, the IC50 (µg/ml), pseudovirus neutralization in experiment [8] is above 50 µg/mL; in experiment [9], above 50 µg/mL; in [10], 0.6 µg/mL; in [11], 1.92 µg/mL; in experiment [16], 0.24 µg/mL. Moreover, the IC50, pseudovirus neutralization is 8.61 µg/mL in [4], above 50 µg/mL in [12], above 50 µg/mL in experiment [13] and 2.22 µg/mL in [15]. This substance gave a neutralization IC50 in experiment [17] above 50 µg/mL.
